Experimental data as given in patent US9603922B2, “Modulation of NKT cell activity with antigen-loaded CD1d molecules” (VACCINEX, INC., priority 2007, dated 2017).

Tests used:
liver iNKT cells = experiment: InvTCR downmodulation: disappearance of liver iNKT cells after single i.p. injection; assay type: in vivo, mouse; details: 20 hours after single i.p. injection; αGalCer 5 μg, sCD1d 20 μg, fusion 40 μg
Description: Frequency of iNKT cells was measured by flow cytometry using CD1d-Tetramer-EXTRAVIDIN®-PE and anti CD3 FITC.
Generation of CD1d tetramer. For this purpose, the soluble β2m-CD1d molecule was modified at the C-terminus by the addition of a cysteine after the stretch of histidine residues. After a mild reduction with 0.5 mM β-mercaptoethanol for 30 min at 30C and purification on a PD10 desalting column, the pure recombinant protein was biotinylated on the cystein residue by the chemical coupling of a biotin-maleimide linker (EZ-linked BM, Pierce) in 2M excess overnight at RT. The excess of linker was removed by gel filtration on a SUPERDEX™S200 column (Pharmacia Biotech). The biotinylated CD1d was loaded with αGalCer as described above and was tetramerized on EXTRAVIDIN®-PE (Sigma) and resulting complex was used at 5 μg/ml for NKT cell staining.
Isolation of liver, lung and spleen lymphocytes. Mouse livers and lungs were homogenized with 100 μm strainer and lymphocytes were isolated using a PERCOLL™ density gradient (Amersham Biosciences). After two washings, cells were either re-challenged or directly analyzed by fluorescence cytometry. Spleens were homogenized with a 70 μm strainer, debris were eliminated by spontaneous sedimentation and splenocytes were recovered by centrifugation. […]

B16-HER2 cells = experiment: Precoating experiment, lung metastases of B16-HER2 cells; assay type: in vivo, mouse; details: cells pre-incubated with agent, injected i.v. into naïve mice
Description: Quantification of lung metastasis. Metastatic nodule surface area was measured on 2560×1920 pixels photographs of the whole organs, taken on an Zeiss STEMI SV11 dissection microscope (Carl Zeiss, Jena, Germany) equipped with a PROGRES-C10plus Color Camera (Jenoptik, Jena, Germany). Each image was analyzed with the ImageJ program (rsb.info.nih.gov/ij/) using a k-means clustering algorithm (plugin available on ij-plugins.sourceforge.net). Images were segmented into 9 segments cluster tolerance 1×10−4, randomization seed: 48) and the appropriate segments were selected based on the color of the metastasis reaching the surface of the organ. The area of the sum of selected color segments was expressed as percentage of the area occupied by the lungs. Both sides of the lung were analyzed. This method takes into account both the number and the size of the tumor nodules.

liver NK cells = experiment: Transactivation of NK cells: liver NK1.1+ CD3- cells after single injection; assay type: in vivo, mouse; details: 20 hours after single i.p. injection
Excerpt: (§1) Cells were stained with anti NK1.1-PE and anti CD3-FITC and analysed by flow cytometry. NK cells are reported as NK1.1 positive/CD3 negative population. b c Induction of DC maturation and T cell proliferation by αGalCer/sCD1d activated NKT cells in vivo. Splenocytes were isolated after five treatments i.v. with either PBS (control), αGalCer, or αGalCer/sCD1d and cultured for 4 days with GM-CSF and then 3 more days with either PBS (control, white bars), αGalCer (grey bars), or αGalCer/sCD1d (sCD1d, black bars). Cells were then stained with anti CD11c-FITC and biotinylated anti CD40 and Streptavidin-PE to detect double positive mature DCs (c), or with anti NK1.1-PE and anti CD3-FITC to detect CD3 single positive T cells (d) by flow cytometry.
(§2) In absence of a specific antigen: Several reports have described the capacity of iNKT cells to transactivate NK, DC and T cells upon activation with free αGalCer or αGalCer-pulsed dendritic cells (Nieda, M., et al. Blood 103:383-389 (2004); Hermans, I. F., et al. J Immunol 171:5140-5147 (2003); Smyth, M. J., et al. J Exp Med 201:1973-1985 (2005)). […] Markers for DC maturation were also analyzed after 5 days in vitro culture of splenocytes isolated at the end of a systemic treatment, as described in Example 1. […]

[1] = test system: splenocytes, CD11c+ CD40+ DC; experiment: DC maturation (CD11c+ CD40+) in splenocyte cultures of treated mice; assay type: cell-based, mouse; details: in vitro stimulation of splenocytes isolated after systemic treatment
Excerpt: as §1, §2

[2] = test system: splenocytes, CD3+ T cells; experiment: Conventional T cells (CD3+) in splenocyte cultures of treated mice; assay type: cell-based, mouse; details: for Conventional T cell population of CD3+ cells, in words: in vitro stimulation of splenocyte cultures; for Percentage of CD3+ cells of total spleen cells: in vitro stimulation, 7% without stimulation
Excerpt: as §1
In absence of a specific antigen: Several reports have described the capacity of iNKT cells to transactivate NK, DC and T cells upon activation with free αGalCer or αGalCer-pulsed dendritic cells (Nieda, M., et al. Blood 103:383-389 (2004); Hermans, I. F., et al. J Immunol 171:5140-5147 (2003); Smyth, M. J., et al. J Exp Med 201:1973-1985 (2005)). […] Regarding NK cells, their frequency indeed increased after a single injection of free αGalCer or of αGalCer/sCD1d with or without anti HER2, as shown by the increase of the NK1.1^+ CD3^− cell population (FIG. 7a). Markers for DC maturation were also analyzed after 5 days in vitro culture of splenocytes isolated at the end of a systemic treatment, as described in Example 1. […] From 7% of total spleen cells without stimulation, percentage of CD3^+ cells increased to 17, 27 and 30%, respectively in naïve, αGalCer and αGalCer/sCD1d treated mice.

[3] = test system: H-2Kb/OVA specific CD8 T cells; experiment: Adjuvant effect on H-2Kb/OVA specific CD8 T cells upon ovalbumin immunization; assay type: in vivo, mouse; details: for Frequency of Kb/OVA specific CTLs in the spleens, of total CD8: after OVA peptide boost, 5 days in vitro culture without further stimulation; for Frequency of specific T cells: after boost and in vitro re-stimulation with same stimuli; for H-2Kb/OVA257-264 tetramer CD8 double positive T cells after priming: priming with 200 μg ovalbumin plus adjuvant
Description: FIG. 8: αGalCer loaded sCD1d acts as a strong adjuvant for the expansion of antigen-specific T cells upon active immunization. a kinetics of expansion of H-2K^b/OVA specific CTLs. Mice were primed with 200 μg ovalbumin either as such (i.v.) or with MONTANIDE™ adjuvant (3:7 ratio, s.c.) or with 1 μg αGalCer or 20 μg αGalCer/sCD1d (i.v.). Mice were bled every 5-7 days and PBMC were stained with H-2K^b/oVA tetramer+anti-CD8. Results were expressed as tetramer+ and CD8+ […] as a percentage of total CD8+ T cells. Mice were boosted with OVA peptide (20 μg) on day 22 employing the same adjuvants and route of injection as for primary immunization. b Ten days later, mice were sacrificed and splenocytes were cultured another five days either with no stimuli or with the same stimuli and adjuvants as for the in vivo boost. Frequency of OVA specific T cells was measured as in a. c The presence of mature DC in the same cultures as in b was analyzed by surface staining with anti CD11c and anti CD40 antibodies.
Together with active OVA immunization: An adjuvant effect has previously been attributed to free αGalCer and its potential use in vaccination has been proposed (Silk, J. D., et al. J Clin Invest 114:1800-1811 (2004)). […] In this context, the adjuvant effect on the expansion of antigen-specific T cells in the model of C57 BL/6 mice immunized with ovalbumin was investigated (Hermans, I. F., et al. J Immunol 171:5140-5147 (2003)). […] Furthermore, after boosting these same mice with OVA peptide in the same adjuvants in vivo and then 5 days in vitro culture without further stimulation, the frequency of K^b/OVA specific CTLs in the spleens reached up to 45% of total CD8 in mice that received a boost of OVA peptide with αGalCer/sCD1d, whereas the frequency was 12% in mice boosted with peptide and αGalCer alone (FIG. 8b). A further increase could be obtained by in vitro re-stimulation with the same respective stimuli and the frequency of specific T cells reached close to 70% in both αGalCer and αGalCer/sCD1d-treated mice (FIG. 8b).

Row | Molecule | inv TCR downmodulation / disappearance of liver iNKT cells (liver iNKT cells) | Lung metastases of precoated B16-HER2 cells (B16-HER2 cells) | NK cell frequency (NK1.1+ CD3- population) (liver NK cells) | Percentage of CD11c+ CD40+ double positive cells [1] | Conventional T cell population of CD3+ cells, in words [2] | Frequency of Kb/OVA specific CTLs in the spleens, of total CD8 [3] | Frequency of specific T cells [3] [%] | H-2Kb/OVA257-264 tetramer CD8 double positive T cells after priming [3] | Percentage of CD3+ cells of total spleen cells ([2]; splenocytes of naïve mice) [%] | Percentage of CD3+ cells of total spleen cells ([2]; splenocytes of αGalCer treated mice) [%] | Percentage of CD3+ cells of total spleen cells ([2]; splenocytes of αGalCer/sCD1d treated mice) [%]
1 | CCCCCCCCCCCCCCCCCCCCCCCCCC(=O)N[C@@H](CO[C@H]1O[C@H](CO)[C@H](O)[C@H](O)[C@H]1O)[C@H](O)[C@H](O)CCCCCCCCCCCCCC [αGalCer, α-galactosylceramide, reference compound] | inv TCR downmodulation occurred | completely inhibited tumor development | increased | had no effect in any of the mice | no significant effect | 12% | ~70 | no H-2K^b/OVA257-264 tetramer CD8 double positive T cells could be detected | – | – | –
2 | αGalCer/sCD1d: soluble monomeric mouse β2m-CD1d, His-tagged, loaded with αGalCer (protein) IQKTPQIQVYSRHPPENGKPNILNCYVTQFHPPHIEIQMLKNGKKIPKVEMSDMSFSKDWSFYILAHTEFTPTETDTYACRVKHASMAEPKTVYWDRDMGGGGSGGSGSGGGSEAQQKNYTFRCLQMSSFANRSWSRTDSVVWLGDLQTHRWSNDSATISFTKPWSQGKLSNQQWEKLQHMFQVYRVSFTRDIQELVKMMSPKEDYPIEIQLSAGCEMYPGNASESFLHVAFQGKYVVRFWGTSWQTVPGAPSWLDLPIKVLNADQGTSATVQMLLNDTCPLFVRGLLEAGKSDLEKQEKPVAWLSSVPSSADGHRQLVCHVSGFYPKPVWVMWMRGDQEQQGTHRGDFLPNADETWYLQATLDVEAGEEAGLACRVKHSSLGGQDIILYWSSGSGGHHHHHH | transient disappearance of liver iNKT cells | – | increased | increased | significantly increased | up to 45% | ~70 | could be detected | 17 | 27 | 30
